Results reported in US20170015742A1 (published 2017).
Positions count from the first letter of the chain named. Numbers in names are those of the source. Each block holds one binder with its values, some of them ahead of it.

Key:
VEGF-A = VEGF-A (UniProt P15692-4 27-191, limits assumed); assay: SPR (Biacore), DVD-Ig captured by anti-human Fc, antigen in flow
Method: (§1) For example, approximately 9000 RU of goat anti-human Fc specific polyclonal antibody (Thermo Fisher Scientific Inc., Rockford, Ill.) diluted in 10 mM sodium acetate (pH 4.5) is directly immobilized across a CM5 research grade biosensor chip using a standard amine coupling kit according to manufacturer's instructions and procedures at 25 μg/ml. Unreacted moieties on the biosensor surface were blocked with ethanolamine. For kinetic analysis, rate equations derived from the 1:1 Langmuir binding model were fitted simultaneously to multiple antigen injections (using global fit analysis) with the use of Scrubber 2 (BioLogic Software), Biacore Biaevaluation 4.0.1 software or Biacore T100 Evaluation software. Purified antibodies or DVD-Ig molecules were diluted in running buffer for capture across goat anti-human Fc reaction surfaces. Antibodies or DVD-Ig molecules to be captured as a ligand (1 μg/ml) were injected over reaction matrices at a flow rate of 10 μl/minute. During the assay, all measurements were referenced against the capture surface alone (i.e., with no captured antibody or DVD-Ig molecule). […] The equilibrium dissociation constant KD (M) of the reaction between antibodies and the target antigen was then calculated from the kinetic rate constants by the following formula: KD=Koff/Kₒₙ. Binding was recorded as a function of time and kinetic rate constants were calculated.

PDGF-BB = PDGF-BB (UniProt P01127 82-190); assay: as above
PDGF-BB, sequence (P01127 82-190): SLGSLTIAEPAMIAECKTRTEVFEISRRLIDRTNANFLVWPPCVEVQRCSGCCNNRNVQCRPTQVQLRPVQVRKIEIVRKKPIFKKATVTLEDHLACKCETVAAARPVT
Method: as §1

VEGF-A, sequence (P15692 other isoform, or with tags, fused parts or gaps limits assumed): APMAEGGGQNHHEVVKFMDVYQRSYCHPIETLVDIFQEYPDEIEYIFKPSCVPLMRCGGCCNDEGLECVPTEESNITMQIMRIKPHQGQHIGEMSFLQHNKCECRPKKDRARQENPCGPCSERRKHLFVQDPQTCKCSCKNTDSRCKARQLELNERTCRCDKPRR

B1: 4G8.3-SL-9E8.4 (PR-1564012) (bispecific antibody, human IgG1, kappa, L234A L235A)
heavy: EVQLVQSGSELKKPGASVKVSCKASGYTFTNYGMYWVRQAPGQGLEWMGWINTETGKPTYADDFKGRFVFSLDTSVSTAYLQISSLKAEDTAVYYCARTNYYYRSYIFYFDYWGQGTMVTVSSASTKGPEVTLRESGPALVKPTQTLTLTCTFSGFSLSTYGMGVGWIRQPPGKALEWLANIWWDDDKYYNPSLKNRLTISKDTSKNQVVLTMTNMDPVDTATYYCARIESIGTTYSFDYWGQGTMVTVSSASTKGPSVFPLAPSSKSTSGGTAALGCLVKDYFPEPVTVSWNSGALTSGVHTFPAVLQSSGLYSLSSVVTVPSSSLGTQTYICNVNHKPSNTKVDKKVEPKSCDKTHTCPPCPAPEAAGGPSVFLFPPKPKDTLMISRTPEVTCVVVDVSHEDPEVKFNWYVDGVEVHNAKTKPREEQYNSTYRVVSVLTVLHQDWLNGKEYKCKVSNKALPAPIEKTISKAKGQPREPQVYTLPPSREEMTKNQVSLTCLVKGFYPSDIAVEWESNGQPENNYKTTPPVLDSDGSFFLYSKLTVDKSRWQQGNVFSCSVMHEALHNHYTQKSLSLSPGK
light: DTVLTQSPATLSLSPGERATLSCRASESVSTHMHWYQQKPGQAPRLLIYGASNLESGVPARFSGSGSGTDFTLTISSLEPEDFAVYFCQQSWNDPFTFGQGTKLEIKRTVAAPSVFIFPPEFVLTQSPGTLSLSPGERATLSCERSSGDIGDSYVSWYQQKPGQAPRLVIYADDQRPSGIPDRFSGSGSGTDFTLTISRLEPEDFAVYYCQSYDINIDIVFGGGTKVEIKGTVAAPSVFIFPPSDEQLKSGTASVVCLLNNFYPREAKVQWKVDNALQSGNSQESVTEQDSKDSTYSLSSTLTLSKADYEKHKVYACEVTHQGLSSPVTKSFNRGEC
notes: DVD-Ig; outer hBDB-4G8.3 (VEGF), linkers HG-short/LK-long, inner hBDI-9E8.4 (PDGF); human IgG1 L234A, L235A / kappa
Kd (VEGF-A): 0.013 nM
kon (VEGF-A): 3.1e+06 M⁻¹ s⁻¹
Kd (PDGF-BB): 0.0099 nM
kon (PDGF-BB): 1.4e+07 M⁻¹ s⁻¹

B4: DVD3904 (PR-1565031) (bispecific antibody, human IgG1, kappa, L234A L235A)
heavy: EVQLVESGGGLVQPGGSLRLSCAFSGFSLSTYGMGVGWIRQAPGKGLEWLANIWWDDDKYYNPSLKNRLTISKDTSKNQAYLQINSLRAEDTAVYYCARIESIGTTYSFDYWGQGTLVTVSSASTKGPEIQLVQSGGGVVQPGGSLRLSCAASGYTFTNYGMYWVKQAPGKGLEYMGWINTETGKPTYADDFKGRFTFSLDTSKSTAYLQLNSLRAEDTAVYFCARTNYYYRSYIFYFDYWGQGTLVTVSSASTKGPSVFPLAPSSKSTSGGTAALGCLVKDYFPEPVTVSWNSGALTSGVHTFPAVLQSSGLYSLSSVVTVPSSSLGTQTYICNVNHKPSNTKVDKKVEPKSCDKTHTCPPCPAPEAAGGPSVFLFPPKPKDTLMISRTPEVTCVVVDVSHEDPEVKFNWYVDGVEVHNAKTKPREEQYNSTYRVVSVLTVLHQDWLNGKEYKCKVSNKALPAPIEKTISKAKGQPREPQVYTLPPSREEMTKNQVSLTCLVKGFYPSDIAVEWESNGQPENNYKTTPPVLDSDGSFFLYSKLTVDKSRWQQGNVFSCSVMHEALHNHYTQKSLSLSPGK
light: DFQLTQSPSSLSASVGDRVTITCERSSGDIGDSYVSWYQQKPGKAPKNVIYADDQRPSGVPSRFSGSGSGNSASLTISSLQPEDFATYFCQSYDINIDIVFGQGTKVEIKGTVAAPSVFIFPPDTVLTQSPSTLSASPGERATISCRASESVSTHMHWYQQKPGQAPKLLIYGASNLESGVPSRFSGSRSGTDFTLTISSLQPEDFAVYFCQQSWNDPFTFGQGTKVEIKRTVAAPSVFIFPPSDEQLKSGTASVVCLLNNFYPREAKVQWKVDNALQSGNSQESVTEQDSKDSTYSLSSTLTLSKADYEKHKVYACEVTHQGLSSPVTKSFNRGEC
notes: DVD-Ig; linkers HG-short/LK-long, inner hBDB-4G8.14 (VEGF); human IgG1 L234A, L235A / kappa
Kd (VEGF-A): 0.19 nM
kon (VEGF-A): 610000 M⁻¹ s⁻¹
Kd (PDGF-BB): 0.09 nM
kon (PDGF-BB): 1e+07 M⁻¹ s⁻¹

B6: 9E8.4-LS-4G8.3 (PR-1564009) (bispecific antibody, human IgG1, kappa, L234A L235A)
heavy: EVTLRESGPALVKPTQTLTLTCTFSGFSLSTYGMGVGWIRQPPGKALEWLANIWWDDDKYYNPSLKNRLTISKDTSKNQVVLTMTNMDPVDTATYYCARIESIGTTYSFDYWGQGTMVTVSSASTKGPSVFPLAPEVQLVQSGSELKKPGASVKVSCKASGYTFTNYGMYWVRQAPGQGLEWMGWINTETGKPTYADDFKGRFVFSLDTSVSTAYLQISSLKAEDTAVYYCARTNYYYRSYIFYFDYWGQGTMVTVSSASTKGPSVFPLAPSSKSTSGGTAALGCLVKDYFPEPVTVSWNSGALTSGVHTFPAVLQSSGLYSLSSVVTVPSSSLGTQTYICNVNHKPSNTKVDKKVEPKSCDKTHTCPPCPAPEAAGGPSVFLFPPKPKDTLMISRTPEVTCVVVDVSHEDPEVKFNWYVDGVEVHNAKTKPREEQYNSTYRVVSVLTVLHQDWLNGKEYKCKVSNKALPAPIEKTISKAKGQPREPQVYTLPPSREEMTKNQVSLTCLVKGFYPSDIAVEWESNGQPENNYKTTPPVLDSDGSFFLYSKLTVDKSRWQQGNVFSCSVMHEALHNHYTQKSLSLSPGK
light: EFVLTQSPGTLSLSPGERATLSCERSSGDIGDSYVSWYQQKPGQAPRLVIYADDQRPSGIPDRFSGSGSGTDFTLTISRLEPEDFAVYYCQSYDINIDIVFGGGTKVEIKGTVAAPDTVLTQSPATLSLSPGERATLSCRASESVSTHMHWYQQKPGQAPRLLIYGASNLESGVPARFSGSGSGTDFTLTISSLEPEDFAVYFCQQSWNDPFTFGQGTKLEIKRTVAAPSVFIFPPSDEQLKSGTASVVCLLNNFYPREAKVQWKVDNALQSGNSQESVTEQDSKDSTYSLSSTLTLSKADYEKHKVYACEVTHQGLSSPVTKSFNRGEC
notes: DVD-Ig; outer hBDI-9E8.4 (PDGF), linkers HG-long/LK-short, inner hBDB-4G8.3 (VEGF); human IgG1 L234A, L235A / kappa
Kd (VEGF-A): 0.2 nM
kon (VEGF-A): 270000 M⁻¹ s⁻¹
Kd (PDGF-BB): 0.02 nM
kon (PDGF-BB): 1e+07 M⁻¹ s⁻¹

Now from value to binder:

Kd (VEGF-A): 0.011 nM
kon (VEGF-A): 5.6e+06 M⁻¹ s⁻¹
Kd (PDGF-BB): 0.013 nM
kon (PDGF-BB): 1.3e+07 M⁻¹ s⁻¹
B2: 4G8.3-SL-9E8.4 (g) (PR-1572105) (bispecific antibody, human IgG1, kappa, L234A L235A)
heavy: EVQLVQSGSELKKPGASVKVSCKASGYTFTNYGMYWVRQAPGQGLEWMGWINTETGKPTYADDFKGRFVFSLDTSVSTAYLQISSLKAEDTAVYYCARTNYYYRSYIFYFDYWGQGTMVTVSSASTKGPEVTLRESGPALVKPTQTLTLTCTFSGFSLSTYGMGVGWIRQPPGKALEWLANIWWDDDKYYNPSLKNRLTISKDTSKNQVVLTMTNMDPVDTATYYCARIESIGTTYSFDYWGQGTMVTVSSASTKGPSVFPLAPSSKSTSGGTAALGCLVKDYFPEPVTVSWNSGALTSGVHTFPAVLQSSGLYSLSSVVTVPSSSLGTQTYICNVNHKPSNTKVDKKVEPKSCDKTHTCPPCPAPEAAGGPSVFLFPPKPKDTLMISRTPEVTCVVVDVSHEDPEVKFNWYVDGVEVHNAKTKPREEQYNSTYRVVSVLTVLHQDWLNGKEYKCKVSNKALPAPIEKTISKAKGQPREPQVYTLPPSREEMTKNQVSLTCLVKGFYPSDIAVEWESNGQPENNYKTTPPVLDSDGSFFLYSKLTVDKSRWQQGNVFSCSVMHEALHNAYTQKSLSLSPGK
light: B1 light with G231R
notes: DVD-Ig; outer hBDB-4G8.3 (VEGF), linkers HG-short/LK-long, inner hBDI-9E8.4 (PDGF); human IgG1 L234A, L235A, H435A / kappa; also called hu VEGF 4G8.3-SL-hu PDGF 9E8.4 (germline) [hu IgG1/k]; LALA H435A; DVD-Ig-3

Kd (VEGF-A): 0.1 nM
kon (VEGF-A): 920000 M⁻¹ s⁻¹
Kd (PDGF-BB): 0.72 nM
kon (PDGF-BB): 1e+07 M⁻¹ s⁻¹
B3: DVD3906 (PR-1565035) (bispecific antibody, human IgG1, kappa, L234A L235A)
heavy: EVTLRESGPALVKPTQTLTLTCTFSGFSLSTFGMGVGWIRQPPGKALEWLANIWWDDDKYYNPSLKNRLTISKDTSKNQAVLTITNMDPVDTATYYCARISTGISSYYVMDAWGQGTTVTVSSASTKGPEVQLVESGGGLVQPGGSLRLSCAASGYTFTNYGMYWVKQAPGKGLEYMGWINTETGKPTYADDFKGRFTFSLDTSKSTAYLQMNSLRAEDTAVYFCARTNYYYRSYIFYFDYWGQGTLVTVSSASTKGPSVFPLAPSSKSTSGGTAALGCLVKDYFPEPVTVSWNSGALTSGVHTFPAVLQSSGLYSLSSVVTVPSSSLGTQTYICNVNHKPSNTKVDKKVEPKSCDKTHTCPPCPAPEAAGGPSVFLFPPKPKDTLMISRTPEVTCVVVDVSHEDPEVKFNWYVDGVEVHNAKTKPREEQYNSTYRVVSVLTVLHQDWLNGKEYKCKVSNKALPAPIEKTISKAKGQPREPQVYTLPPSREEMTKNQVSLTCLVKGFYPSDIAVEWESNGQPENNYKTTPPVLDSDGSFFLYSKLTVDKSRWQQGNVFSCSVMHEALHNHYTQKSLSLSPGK
light: DFQLTQSPSSLSASVGDRVTITCERSSGDIGDTYVSWYQQKPGKAPKNVIYGNDQRPSGVPSRFSGSGSGNSATLTISSLQPEDFATYFCQSYDSDIDIVFGQGTKVEIKGTVAAPSVFIFPPDTQLTQSPSSLSASVGDRVTISCRASESVSTHMHWYQQKPGKAPKLLIYGASNLESGVPSRFSGSGSGTDFTLTISSLQPEDFATYFCQQSWNDPFTFGQGTKVEIKRTVAAPSVFIFPPSDEQLKSGTASVVCLLNNFYPREAKVQWKVDNALQSGNSQESVTEQDSKDSTYSLSSTLTLSKADYEKHKVYACEVTHQGLSSPVTKSFNRGEC
notes: DVD-Ig; linkers HG-short/LK-long, inner hBDB-4G8.15 (VEGF); human IgG1 L234A, L235A / kappa

Kd (VEGF-A): 0.094 nM
kon (VEGF-A): 1.1e+06 M⁻¹ s⁻¹
Kd (PDGF-BB): 0.18 nM
kon (PDGF-BB): 1e+07 M⁻¹ s⁻¹
B5: DVD3905 (PR-1565032) (bispecific antibody, human IgG1, kappa, L234A L235A)
heavy: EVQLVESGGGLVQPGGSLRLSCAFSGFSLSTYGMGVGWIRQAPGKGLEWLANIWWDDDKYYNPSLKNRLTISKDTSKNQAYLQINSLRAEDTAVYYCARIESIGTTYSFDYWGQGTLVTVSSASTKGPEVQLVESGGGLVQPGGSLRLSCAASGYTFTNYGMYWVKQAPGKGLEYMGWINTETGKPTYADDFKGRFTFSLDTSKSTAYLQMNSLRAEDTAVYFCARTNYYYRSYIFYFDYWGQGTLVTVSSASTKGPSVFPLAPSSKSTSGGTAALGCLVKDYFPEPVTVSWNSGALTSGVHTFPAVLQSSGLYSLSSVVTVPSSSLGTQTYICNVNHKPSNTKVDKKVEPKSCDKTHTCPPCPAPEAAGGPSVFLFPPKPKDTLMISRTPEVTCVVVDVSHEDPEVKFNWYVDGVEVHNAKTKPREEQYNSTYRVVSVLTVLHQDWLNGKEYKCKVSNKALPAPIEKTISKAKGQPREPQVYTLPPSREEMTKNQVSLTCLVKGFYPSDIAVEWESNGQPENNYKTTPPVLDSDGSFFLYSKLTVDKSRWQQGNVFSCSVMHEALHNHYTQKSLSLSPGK
light: B3 light with T33S, G52A, N53D, T74S, S95I, D96N
notes: DVD-Ig; outer hBDI-9E8.12 (PDGF), linkers HG-short/LK-long, inner hBDB-4G8.15 (VEGF); human IgG1 L234A, L235A / kappa
